Laboratory results as given in US12077599 (SEOUL NATIONAL UNIVERSITY R AND DB FOUNDATION NATIONAL …, dated 2024).
Substitutions are numbered along the chain they refer to. Names may count otherwise.

T1: ROS1 synthetic peptide (amino acids 39-56 of ROS1 combined to GGGC) conjugated to BSA (human, not fully specified; conjugated to bovine serum albumin (BSA) or ovalbumin (OVA))
T1 peptide: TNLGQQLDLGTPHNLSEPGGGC

B1: 3B20 scFv (phage-displayed clone) (scFv)
scFv: LTQPSSVSANLGGTVKITCSGGSYGYGWYQQKAPGSAPVTVIYDNTNRPSDIPSRFSGSKSGSTGTLTITGVQVEDEAVYYCGSADSSSIATFGAGTTLTVLGQSSRSSGGGGSSGGGGSAVTLDESGGGLQTPGGTLSLVCKASGFSFSDRGMHWMRQAPGKGLEYVGAISGDGYITHYGAAVKGRATISRDNGQSTVRLQLNNLRAEDTATYYCTRGGGGNIDAWGHGTEVIVSSTS
notes: the phage coat fusion is not described
B2: 3B20-G1K scFv-rFc fusion protein (Fc fusion)
scFv: B1 scFv with V39A, G219K
notes: also called 3B20-G1K-rFc; 3B20(scFv)-G1K-rFc fusion protein; not shown: rabbit antibody Fc (rFc)
B3: 3B20 scFv-Cκ fusion protein (scFv)
chain: B1 scFv
notes: Coated on the plate in the alanine scanning ELISA; not shown: human kappa light chain constant region (Cκ)
B4: 3B20-G1K scFv (phage-displayed clone) (scFv)
scFv: B1 scFv with V39A, G219K
notes: Clone from the HCDR3 first-residue NNK library in pComb3XSS, tested as phage in ELISA; also called 3B20-GIK
B5: 3B20 scFv-rFc fusion protein (Fc fusion, rabbit)
chain: B1 scFv
notes: domain: fragment crystallizable region Fc (rFc); scFv fused with rabbit Fc, expressed from modified pCEP4; also called 3B20-rFc; scFv(3B20)-rFc fusion protein; not shown: rabbit antibody fragment crystallizable region Fc (rFc)
B6: alanine-substituted ROS1-hFc fusion protein, Gly42 replaced with alanine (Fc fusion, not shown: a dimerising Fc or GST; small tags and cut ends)
chain: CVTNLAQQLDLGTPHNLSEPCIQGCHFWNSVDQKNCALKCRESCEVGCSSAEGAYEEEVLENADLPTAPFASSIGSHNMTLRWKSANFSGVKYIIQWKYAQLLGSWTYTKTVSRPSYVVKPLHPFTEYIFRVVWIFTAQLQLYSPPSPSYRTHPHGVPETAPLIRNIESSSPDTVEVSWDPPQFPGGPILGYNLRLISKNQKLDAGTQRTSFQFYSTLPNTIYRFSIAAVNEVGEGPEAESSITTSSSAVQQEE
notes: One of the 13 single alanine mutants from Gly42 to Ser54; also called G42A
B7: alanine-substituted ROS1-hFc fusion protein, Asp46 replaced with alanine (Fc fusion, not shown: a dimerising Fc or GST; small tags and cut ends)
chain: B6 chain with A6G, D10A
notes: also called D46A
B8: alanine-substituted ROS1-hFc fusion protein, L45A mutant (Fc fusion, not shown: a dimerising Fc or GST; small tags and cut ends)
chain: B6 chain with A6G, L9A
notes: also called L45A mutant of ROS1 protein
B9: alanine-substituted ROS1-hFc fusion protein, Gln43 replaced with alanine (Fc fusion, not shown: a dimerising Fc or GST; small tags and cut ends)
chain: B6 chain with A6G, Q7A
notes: also called Q43A
B10: alanine-substituted ROS1-hFc fusion protein, G48A mutant (Fc fusion, not shown: a dimerising Fc or GST; small tags and cut ends)
chain: B6 chain with A6G, G12A
notes: also called G48A mutant of ROS1 protein
B11: alanine-substituted ROS1-hFc fusion protein, L47A mutant (Fc fusion, not shown: a dimerising Fc or GST; small tags and cut ends)
chain: B6 chain with A6G, L11A
notes: also called L47A mutant of ROS1 protein
B12: alanine-substituted ROS1-hFc fusion protein, Gln44 replaced with alanine (Fc fusion, not shown: a dimerising Fc or GST; small tags and cut ends)
chain: B6 chain with A6G, Q8A
notes: also called Q44A

Experiments:
[1] = molecular target: T1, ROS1 synthetic peptide (amino acids …); test: phage ELISA after five rounds of biopanning on the peptide conjugate
Source text: Three White Leghorn chickens were immunized and boosted three times with the synthetic peptide ([…] […] (SEQ ID NO: 16); fusion polypeptide in which the 39th to 56th amino acid regions of ROS1 (GenBank Accession No. NP_002935.2) combined to "GGGC") conjugated to keyhole limpet hemocyanin (Peptron; Daejun, S. Korea). A phage display of a chicken single-chain variable fragment (scFv) antibody library was constructed [See C. F. Barbas, Phage Display: a Laboratory Manual, Cold Spring Harbor Laboratory Press, Cold Spring Harbor, N Y, 2001]. After five rounds of biopanning on the ROS1 synthetic peptide ([…]-[…]) conjugated to either bovine serum albumin (BSA) or ovalbumin (OVA), the single-chain variable fragment (scFv)-displaying phages were subjected to enzyme-linked immunosorbent assay (ELISA) [See C. F. Barbas, Phage Display: a Laboratory Manual, Cold Spring Harbor Laboratory Press, Cold Spring Harbor, N Y, 2001; S. Park, D. H. Lee, J. G. Park, Y. T. Lee, J. Chung, A sensitive enzyme immunoassay for measuring cotinine in passive smokers, Clin. Chim. Acta 411 (2010) 1238-1242].

[2] = molecular target: T2, GRP75 (Enzo Life Sciences) (UniProt P38646 47-679, limits assumed); test: ELISA, GRP75 coated, detection with HRP anti-rabbit IgG
T2 construct: Purchased protein coated in ELISA
T2 sequence (P38646 47-679 limits assumed): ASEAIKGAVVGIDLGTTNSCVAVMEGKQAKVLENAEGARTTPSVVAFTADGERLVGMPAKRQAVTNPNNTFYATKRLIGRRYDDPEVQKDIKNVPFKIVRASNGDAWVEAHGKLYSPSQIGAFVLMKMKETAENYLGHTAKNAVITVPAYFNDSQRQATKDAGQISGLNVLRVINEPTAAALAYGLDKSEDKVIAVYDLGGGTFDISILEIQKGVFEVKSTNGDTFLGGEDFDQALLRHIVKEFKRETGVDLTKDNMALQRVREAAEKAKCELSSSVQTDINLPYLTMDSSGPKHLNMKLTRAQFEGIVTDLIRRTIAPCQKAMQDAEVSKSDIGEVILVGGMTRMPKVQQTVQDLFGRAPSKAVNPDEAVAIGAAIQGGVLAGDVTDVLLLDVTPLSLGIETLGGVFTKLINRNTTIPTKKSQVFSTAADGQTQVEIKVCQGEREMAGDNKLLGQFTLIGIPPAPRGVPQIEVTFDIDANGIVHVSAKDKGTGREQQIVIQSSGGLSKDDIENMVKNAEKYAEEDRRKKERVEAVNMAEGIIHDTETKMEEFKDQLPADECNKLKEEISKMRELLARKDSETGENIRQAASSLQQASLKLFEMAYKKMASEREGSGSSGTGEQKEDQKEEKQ
Procedure: Microtiter plates (Costar, Cambridge, MA, USA) were coated with 100 ng of a recombinant ROS1 (37-290 amino acids)-Cκ fusion protein, an irrelevant protein (recombinant PSA (prostate cancer specific antigen; NP_001025218.1))-Cκ fusion protein the synthetic peptide ([…]-[…])-BSA conjugate or GRP75 (Enzo Life Sciences, Farmingdale, NY, USA) dissolved in coating buffer (0.1 M sodium bicarbonate, pH 8.6). After blocking, 3B20-rFc or 3B20-G1K (the first amino acid G of HCDR3 of 3B20 was substituted to K)-rFc fusion proteins were added. The amounts of bound antibodies were determined using a horseradish peroxidase (HRP)-conjugated goat anti-rabbit IgG antibody (Abcam, Cambridge Science Park, Cambridge, UK) and 2,20-azinobis [3-ethylbenzothiazoline-6-sulfonic acid]-diammonium salt (ABTS) substrate solution (Amresco LLC, Solon, OH, USA). All experiments were performed in triplicate.
To test the specificity of 3B20-GlK, a recombinant 3B20-G1K scFv-Cκ fusion protein was prepared. Then ELISA, immunoblot, and immunoprecipitation analyses were performed in parallel with 3B20 for the prepared fusion protein. […] After blocking, the 3B20-rFc fusion protein or 3B20-G1K-rFc fusion protein was added to the well in a concentration of 0 to 2000 ng/ml, and the amount of the fusion protein combined to the well was measured by ELISA using the HRP-conjugated anti-rabbit IgG antibody and ABTS solution. […]

[3] = molecular target: B12; test: alanine scanning ELISA, 3B20 scFv-Cκ coated, ROS1-hFc mutant in solution, HRP anti-hFc
Procedure: (§1) For alanine scanning mutagenesis of the 3B20 scFv, microtiter plates (Corning Costar) were coated with 100 ng of the 3B20 scFv-Cκ fusion protein, BSA, or the irrelevant scFv-Cκ fusion protein overnight at 4° ° C. After blocking, the plates were incubated with alanine-substituted ROS1-human antibody Fc (hFc) fusion proteins (each amino acid residue from the 42th amino acid residue (Gly) to the 54th amino acid residue (Ser) was replaced with alanine) or a wild type ROS1-hFc fusion protein. The amount of bound fusion protein was determined using an HRP-conjugated rabbit anti-human IgG Fc antibody (Thermo Fisher Scientific, Rockford, IL, USA).
(§2) Example 2. Epitope Mapping of the 3B20 scFv by Alanine Scanning Mutagenesis Assay To further confirm the epitope of the 3B20 scFv, alanine scanning mutagenesis assay was performed using recombinant ROS1 proteins corresponding to amino acids 37-290. First, alanine-substituted ROS1 mutants in which any one of amino acid residues from Gly42 to Ser54 of ROS1 was substituted were prepared. After coating the microtiter plate well with the 3B20 scFv-Cκ fusion protein, BSA or irrelevant scFv-Cκ fusion protein, the plate was incubated with the alanine-substituted ROS1-hFc fusion protein or wild-type ROS1-hFc fusion protein. The amount of the ROS1-hFc fusion protein combined to the plate was measured using the HRP-conjugated anti-hFc antibody and ATBS solution. The obtained result was shown in FIG. 2a (3B20 scFv-Cκ fusion protein coating), 2b (BSA coating) and 2c (irrelevant scFv-Cκ fusion protein coating).

[4] = molecular target: B7; test: as above
Procedure: as §1, §2

[5] = molecular target: B6; test: as above
Procedure: as §1, §2

[6] = molecular target: B9; test: as above
Procedure: as §1, §2

[7] = molecular target: T2, GRP75 (Enzo Life Sciences); test: phage ELISA
Procedure: Each codon in the bracket in the forward primer sequence of the second fragment was replaced with NNK. Subsequently, these PCR fragments were purified and subjected to overlap extension PCR. The overlap extension PCR was performed using 100 ng PCR fragments each by after preparatory modification of DNA at 95° C. for 5 minutes, 30 cycles of DNA modification at 95° C. for 30 seconds, combination of primers at 56° C. for 30 seconds, and elongation at 72° C. for 30 seconds, and then it was terminated after incubation for 5 minutes. The obtained overlap extension PCR products were purified and subcloned into a pComb3XSS phagemid vector using Sfi I restriction enzyme and transformed into *Escherichia coli* [See C. F. Barbas, Phage Display: a Laboratory Manual, Cold Spring Harbor Laboratory Press, Cold Spring Harbor, N Y, 2001]. From the output titer plate, phages were rescued from randomly selected colonies and subjected to ELISA [See C. F. Barbas, Phage Display: a Laboratory Manual, Cold Spring Harbor Laboratory Press, Cold Spring Harbor, N Y, 2001].
Example 3. Screening of Modified scFv with Enhanced Specificity from the HCDR3 Site-Directed Mutagenesis Library Based on the result of Example 2, to generate monoclonal antibody clones nonreactive to Hsp70 but reactive to ROS1, HCDR3 site-directed mutagenesis libraries were constructed. […]

[8] = molecular target: T3, Stress-70 protein, mitochondrial (GRP75), from HEK293T cell lysate (human, UniProt P38646 47-679); test: immunoprecipitation with 3B20 scFv-rFc from HEK293T lysates, LC-MS of the 70 kDa band
T3 construct: Identified by LC-MS/MS against the IPI human database; also called IPI00007765 (+1)
T3 sequence (P38646 47-679 limits assumed): as above
Procedure: (§3) HEK293T cell lines overexpressing either ROS1 or GFP were lysed in cold lysis buffer [1% Triton X-100, 150 mM NaCl, 50 mM Tris (pH 8.0)] containing 1 mM phenylmethane sulfonyl fluoride (Merck KGaA, Darmstadt, Germany) a protease inhibitor cocktail (Roche), and a phosphatase inhibitor cocktail (Roche). Lysates were incubated with 3B20 scFv or 3B20 scFv-G1K fused to the rFc fusion protein (5 μg/mL) and protein A-conjugated agarose beads (RepliGen, Waltham, MA, USA). After washing, proteins bound to beads were eluted by boiling in NuPAGE LDS Sample Buffer (Thermo Fisher Scientific) and subjected to SDS-PAGE and immunoblotting (See Reference example 4). The eluted proteins separated by SDS-PAGE were visualized using Coomassie Brilliant Blue R250 (Merck). […]
(§4) To investigate the proteins reactive to 3B20 scFv, immunoprecipitation was performed using a 3B20 scFv-rFc fusion protein from HEK293T cells transfected with lentiviral vector encoding human ROS1 (full-length) or GFP (control). […] Bands corresponding to 70 kDa and 260 kDa were excised from the gel and analyzed by liquid chromatography/MS. The obtained result was shown in FIG. 1c, and the list of proteins analyzed in (A) and (B) bands represented by arrows in FIG. 1c was shown in the following Table 2. As expected, ROS1 (accession number: IPI0028965; SEQ ID NO: 9) was detected in a band of 260 kDa.

[9] = molecular target: T4, Heat shock 70 kDa protein 1A/1B, from HEK293T cell lysate (human, UniProt P0DMV8 2-641); test: as above
T4 construct: Identified by LC-MS/MS against the IPI human database; also called Hsp70; HSP70
T4 sequence (P0DMV8 2-641 limits assumed): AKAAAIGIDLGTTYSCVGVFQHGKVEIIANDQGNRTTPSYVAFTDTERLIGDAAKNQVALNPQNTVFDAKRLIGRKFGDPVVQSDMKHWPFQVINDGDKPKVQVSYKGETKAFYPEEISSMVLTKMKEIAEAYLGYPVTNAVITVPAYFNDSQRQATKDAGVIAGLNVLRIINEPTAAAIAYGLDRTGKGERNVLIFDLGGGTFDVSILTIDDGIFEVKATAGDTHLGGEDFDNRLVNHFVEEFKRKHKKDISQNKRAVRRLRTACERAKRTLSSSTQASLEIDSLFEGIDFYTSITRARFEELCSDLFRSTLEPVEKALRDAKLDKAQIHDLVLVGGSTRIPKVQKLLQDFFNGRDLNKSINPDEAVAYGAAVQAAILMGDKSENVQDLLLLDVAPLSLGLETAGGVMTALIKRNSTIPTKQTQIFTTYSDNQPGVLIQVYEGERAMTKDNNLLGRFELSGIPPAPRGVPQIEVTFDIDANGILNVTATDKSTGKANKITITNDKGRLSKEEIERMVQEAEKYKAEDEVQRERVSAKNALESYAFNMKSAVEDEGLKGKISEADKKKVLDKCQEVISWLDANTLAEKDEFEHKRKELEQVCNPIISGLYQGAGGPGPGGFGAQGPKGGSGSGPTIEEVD
Procedure: as §3, §4

[10] = molecular target: T5, bovine serum albumin (bovine, UniProt P02769 25-607); test: ELISA, BSA coated, ROS1-hFc mutant in solution, HRP anti-hFc
T5 construct: Negative control coating in the alanine scanning ELISA; also called BSA
T5 sequence (P02769 25-607 limits assumed): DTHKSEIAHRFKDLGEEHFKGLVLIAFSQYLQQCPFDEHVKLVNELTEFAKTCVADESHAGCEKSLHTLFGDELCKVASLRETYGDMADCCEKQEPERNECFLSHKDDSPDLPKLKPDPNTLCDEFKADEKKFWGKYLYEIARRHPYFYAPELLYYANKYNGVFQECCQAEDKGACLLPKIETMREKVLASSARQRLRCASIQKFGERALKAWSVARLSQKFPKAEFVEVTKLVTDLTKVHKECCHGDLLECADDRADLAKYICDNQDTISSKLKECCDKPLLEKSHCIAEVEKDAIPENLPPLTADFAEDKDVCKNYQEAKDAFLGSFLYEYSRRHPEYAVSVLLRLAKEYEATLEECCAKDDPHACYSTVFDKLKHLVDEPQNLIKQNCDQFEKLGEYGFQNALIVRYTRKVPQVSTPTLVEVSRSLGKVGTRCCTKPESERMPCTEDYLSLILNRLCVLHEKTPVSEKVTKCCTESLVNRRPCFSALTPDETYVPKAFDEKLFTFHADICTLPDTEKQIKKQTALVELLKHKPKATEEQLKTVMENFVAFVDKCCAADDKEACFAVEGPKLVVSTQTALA
Procedure: as §1, §2

B1
binding result [1]: binds

B2
binding result [2]: no binding (tested: 2 µg/mL)

B3
binding result [3]: binds
binding result [4]: binds
binding result [5]: binds
binding result [6]: binds

B4
binding result [7]: no binding

B5
binding result [8]: binds
binding result [9]: binds

B6
binding result [10]: no binding

B7
binding result [10]: no binding

B8
binding result [10]: no binding

B9
binding result [10]: no binding

B10
binding result [10]: no binding

B11
binding result [10]: no binding

B12
binding result [10]: no binding
